Consider one molecule from PMC5452030.

Broadly, the Kd is the free concentration of one partner at which half of the binding sites on the other are occupied at equilibrium, for simple one-to-one binding. Low values mean higher affinity, high ones lower affinity.

Common to all, as to assay: SPR
Background: In SPR one partner is held on a chip, and binding of the other changes the refractive index at the surface.

Assay [1] concerns the target human ApoER2 ECD-BAS H96A/H99A (LA2 mutant) (human).
Assay [2] deals with human ApoER2 ECD-BAS H96K/H99K (LA2 mutant) (human).
In assay [3] the target is human ApoER2 ECD-BAS E107Q (LA2 mutant) (human).
Assay [4] deals with human ApoER2 ECD-BAS D68N (LA1 mutant) (human).
Assay [5] has as its target human ApoER2 ECD-BAS H96K/H99K (LA2 mutant) (human). This is another data set of the same source.

Read-outs that look alike come from different tables or passages of the source.

B1: mouse reelin R56 fragment (fifth and sixth reelin repeats), wild type, for SPR (domain or fragment)
chain: DGNNLNNPVLLLDTFDFGPREDNWFFYPGGNIGLYCPYSSKGAPEEDSAMVFVSNEVGEHSITTRDLSVNENTIIQFEINVGCSTDSSSADPVRLEFSRDFGATWHLLLPLCYHSSSLVSSLCSTEHHPSSTYYAGTTQGWRREVVHFGKLHLCGSVRFRWYQGFYPAGSQPVTWAIDNVYIGPQCEEMCYGHGSCINGTKCICDPGYSGPTCKISTKNPDFLKDDFEGQLESDRFLLMSGGKPSRKCGILSSGNNLFFNEDGLRMLVTRDLDLSHARFVQFFMRLGCGKGVPDPRSQPVLLQYSLNGGLSWSLLQEFLFSNSSNVGRYIALEMPLKARSGSTRLRWWQPSENGHFYSPWVIDQILIGGNISGNTVLEDDFSTLDSRKWLLHPGGTKMPVCGSTGDALVFIEKASTRYVVTTDIAVNEDSFLQIDFAASCSVTDSCYAIELEYSVDLGLSWHPLVRDCLPTNVECSRYHLQRILVSDTFNKWTRITLPLPSYTRSQATRFRWHQPAPFDKQQTWAIDNVYIGDGCLDMCSGHGRCVQGSCVCDEQWGGLYCDEPETSLPTQLKDNFNRAPSNQNWLTVSGGKLSTVCGAVASGLALHFSGGCSRLLVTVDLNLTNAEFIQFYFMYGCLITPSNRNQGVLLEYSVNGGITWNLLMEIFYDQYSKPGFVNILLPPDAKEIATRFRWWQPRHDGLDQNDWAIDNVLIS
Consider B1, for which the Kd in assay [1] was 120 nM; in assay [2] it was 490 nM; in assay [3], 38 nM; in assay [4] it was more than 2800 nM; in assay [5], 45 nM.
